One sequence from paper PMC5440498 can be followed below.

For the series, the target named is His-MBP-eYFP-PRDM9Cst-ZnF (Mus musculus castaneus (CAST/EiJ, Prdm9 Cst allele)) (UniProt Q96EQ9). In words: EMSA. As to conditions: 2.5 uM protein, 15 nM DNA, 50 ng/ul polydIdC, EMSA (chimeras): 10 mM Tris-HCl pH 7.5, 50 mM KCl, 1 mM DTT, 0.05% NP-40, 50 uM ZnCl2, titration EMSA: low polydIdC plus 0.03% sarcosyl …. For orientation: Mobility shift assays separate free from complexed probe on a gel.
Chain of UniProt Q96EQ9 (Q96EQ9 whole entry): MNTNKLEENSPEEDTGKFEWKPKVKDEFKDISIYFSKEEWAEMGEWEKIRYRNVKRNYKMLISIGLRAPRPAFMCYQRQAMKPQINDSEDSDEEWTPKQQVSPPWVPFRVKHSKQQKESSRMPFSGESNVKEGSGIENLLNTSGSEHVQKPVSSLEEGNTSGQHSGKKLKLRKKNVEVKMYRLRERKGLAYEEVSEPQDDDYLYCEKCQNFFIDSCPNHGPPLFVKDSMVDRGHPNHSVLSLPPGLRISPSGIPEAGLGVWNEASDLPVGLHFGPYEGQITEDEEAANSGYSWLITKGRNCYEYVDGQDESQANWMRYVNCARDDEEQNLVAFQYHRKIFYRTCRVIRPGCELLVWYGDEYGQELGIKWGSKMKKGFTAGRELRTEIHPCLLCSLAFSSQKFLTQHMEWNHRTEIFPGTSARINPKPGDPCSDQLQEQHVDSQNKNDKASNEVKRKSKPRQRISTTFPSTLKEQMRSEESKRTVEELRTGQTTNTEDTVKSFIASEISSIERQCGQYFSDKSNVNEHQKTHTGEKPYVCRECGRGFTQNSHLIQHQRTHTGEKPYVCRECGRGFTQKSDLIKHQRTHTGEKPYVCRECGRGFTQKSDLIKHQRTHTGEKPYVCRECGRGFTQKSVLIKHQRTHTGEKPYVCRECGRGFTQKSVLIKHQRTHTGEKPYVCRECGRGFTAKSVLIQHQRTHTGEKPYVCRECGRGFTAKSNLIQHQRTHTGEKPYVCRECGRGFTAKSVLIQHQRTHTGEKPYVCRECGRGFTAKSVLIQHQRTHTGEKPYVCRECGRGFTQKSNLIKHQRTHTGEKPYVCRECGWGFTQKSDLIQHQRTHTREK

Consider “GTGGGAGGAGATGGTGGGTGAATAGTGTGCAGACTTGGACCCTGCCCTTTCTTTACGCATTCCACTAACCATGGG (double strand) [Hlx1 B6 75 bp (hot)]”, for which the binding signal is 100 % bound.
